Assay results published in paper PMC9352680, “A comprehensive thermodynamic model for RNA binding by the Saccharomyces cerevisiae Pumilio protein PUF4”.

T1: PUF4 RNA-binding domain (Saccharomyces cerevisiae, UniProt P25339 537-888)
T1 sequence: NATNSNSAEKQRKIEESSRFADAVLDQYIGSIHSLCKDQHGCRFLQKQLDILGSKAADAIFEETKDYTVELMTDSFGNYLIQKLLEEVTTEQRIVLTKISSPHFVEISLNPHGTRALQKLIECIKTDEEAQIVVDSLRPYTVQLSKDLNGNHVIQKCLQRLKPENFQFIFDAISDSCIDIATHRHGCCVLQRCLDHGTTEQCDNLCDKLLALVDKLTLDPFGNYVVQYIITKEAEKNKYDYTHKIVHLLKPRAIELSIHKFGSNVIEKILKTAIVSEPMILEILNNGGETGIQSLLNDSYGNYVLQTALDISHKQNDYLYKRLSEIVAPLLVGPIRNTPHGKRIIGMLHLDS


target: T1, PUF4 RNA-binding domain; assay: Mg; RNA-MaP; 20 mM Na-HEPES pH 7.4, 30 mM KOAc, 0.75 mM MgCl2, 0.1% Tween-20, 5% glycerol, 0.1 mg/mL BSA, 2 mM DTT; 25 C; 0.0125-409.6 nM protein; details: tags: N-His6-TEV cleaved; C-SNAP kept, Cy3B-labelled; label: tethered on chip by stalled RNA polymerase

Binder | Kd [nM]
UCUCUUUGUAAUGUUUCUCUU (ssRNA) [Ic_S1_P4E.1_K4.1_C4.1_H4.1_A4.1_[T5A]_[A6T]_[T7G]_F4.1_[A9T]_T4.1] | 95.2
UCUCUUUGUAACUCAUCUCUU (ssRNA) [Ic_S1_P4E.1_K4.1_C4.1_H4.1_A4.1_[T5A]_[A6C]_F4.1_[T8C]_T4.1] | 374
UCUCUUUGUAACGUCUCUCUU (ssRNA) [Ic_S1_P4E.1_K4.1_C4.1_H4.1_A4.1_[T5A]_[A6C]_[T7G]_F4.1_[A9C]_T4.1] | 789
UCUCUUUGUAACGCUUCUCUU (ssRNA) [Ic_S1_P4E.1_K4.1_C4.1_H4.1_A4.1_[T5A]_[A6C]_[T7G]_F4.1_[T8C]_[A9T]_T4.1] | 581
UCUCUUUGUAACGUUUCUCUU (ssRNA) [Ic_S1_P4E.1_K4.1_C4.1_H4.1_A4.1_[T5A]_[A6C]_[T7G]_F4.1_[A9T]_T4.1] | 314
UCUCUUUGUAAUGUAUCUCUU (ssRNA) [Ic_S1_P4E.1_K4.1_C4.1_H4.1_A4.1_[T5A]_[A6T]_[T7G]_F4.1_T4.1] | 11.2
UCUCUUUGUGUAUGUCUCUU (ssRNA) [Ib_S1_P3E.1_K3.1_C3.1_H3.1_[A4G]_A3.1_F3.1_[A8G]_T3.1] | 494
UCUCUUUGCAUAUCUCUCUU (ssRNA) [Ib_S1_P3E.1_K3.1_C3.1_H3.1_[T3C]_A3.1_F3.1_[A8C]_T3.1] | > 2300
UCUCUUUGUAACAGUUCUCUU (ssRNA) [Ic_S1_P4E.1_K4.1_C4.1_H4.1_A4.1_[T5A]_[A6C]_[T7A]_F4.1_[T8G]_[A9T]_T4.1] | 362
UCUCUUUGUAACCAUUCUCUU (ssRNA) [Ic_S1_P4E.1_K4.1_C4.1_H4.1_A4.1_[T5A]_[A6C]_[T7C]_F4.1_[T8A]_[A9T]_T4.1] | 548
UCUCUUUGUAACUGGUCUCUU (ssRNA) [Ic_S1_P4E.1_K4.1_C4.1_H4.1_A4.1_[T5A]_[A6C]_F4.1_[T8G]_[A9G]_T4.1] | 937
UCUCUUUGUAAUGGCUCUCUU (ssRNA) [Ic_S1_P4E.1_K4.1_C4.1_H4.1_A4.1_[T5A]_[A6T]_[T7G]_F4.1_[T8G]_[A9C]_T4.1] | 2140
UCUCUUUGUAACAUCUCUCUU (ssRNA) [Ic_S1_P4E.1_K4.1_C4.1_H4.1_A4.1_[T5A]_[A6C]_[T7A]_F4.1_[A9C]_T4.1] | 24.5
UCUCUUUGUAACUUGUCUCUU (ssRNA) [Ic_S1_P4E.1_K4.1_C4.1_H4.1_A4.1_[T5A]_[A6C]_F4.1_[A9G]_T4.1] | 62.5
UCUCUUUGUAACUUUUCUCUU (ssRNA) [Ic_S1_P4E.1_K4.1_C4.1_H4.1_A4.1_[T5A]_[A6C]_F4.1_[A9T]_T4.1] | 58.3
UCUCUUUGCAUAUGUCUCUU (ssRNA) [Ib_S1_P3E.1_K3.1_C3.1_H3.1_[T3C]_A3.1_F3.1_[A8G]_T3.1] | > 2300

Binder | Kd [nM]
UCUCUUUGUAACCUGUCUCUU (ssRNA) [Ic_S1_P4E.1_K4.1_C4.1_H4.1_A4.1_[T5A]_[A6C]_[T7C]_F4.1_[A9G]_T4.1] | 61
UCUCUUUGUAAUCUAUCUCUU (ssRNA) [Ic_S1_P4E.1_K4.1_C4.1_H4.1_A4.1_[T5A]_[A6T]_[T7C]_F4.1_T4.1] | 8.88
UCUCUUUGUAACAACUCUCUU (ssRNA) [Ic_S1_P4E.1_K4.1_C4.1_H4.1_A4.1_[T5A]_[A6C]_[T7A]_F4.1_[T8A]_[A9C]_T4.1] | 580
UCUCUUUGUAACUAUUCUCUU (ssRNA) [Ic_S1_P4E.1_K4.1_C4.1_H4.1_A4.1_[T5A]_[A6C]_F4.1_[T8A]_[A9T]_T4.1] | 93.1
UCUCUUUGUAAUCCUUCUCUU (ssRNA) [Ic_S1_P4E.1_K4.1_C4.1_H4.1_A4.1_[T5A]_[A6T]_[T7C]_F4.1_[T8C]_[A9T]_T4.1] | 484
UCUCUUUGUAAUACCUCUCUU (ssRNA) [Ic_S1_P4E.1_K4.1_C4.1_H4.1_A4.1_[T5A]_[A6T]_[T7A]_F4.1_[T8C]_[A9C]_T4.1] | 713
UCUCUUUGUAAUAACUCUCUU (ssRNA) [Ic_S1_P4E.1_K4.1_C4.1_H4.1_A4.1_[T5A]_[A6T]_[T7A]_F4.1_[T8A]_[A9C]_T4.1] | 642
UCUCUUUGUAACAUAUCUCUU (ssRNA) [Ic_S1_P4E.1_K4.1_C4.1_H4.1_A4.1_[T5A]_[A6C]_[T7A]_F4.1_T4.1] | 1.55
UCUCUUUGUAACUGCUCUCUU (ssRNA) [Ic_S1_P4E.1_K4.1_C4.1_H4.1_A4.1_[T5A]_[A6C]_F4.1_[T8G]_[A9C]_T4.1] | 704
UCUCUUUGUAACCUCUCUCUU (ssRNA) [Ic_S1_P4E.1_K4.1_C4.1_H4.1_A4.1_[T5A]_[A6C]_[T7C]_F4.1_[A9C]_T4.1] | 90
UCUCUUUGUAACUAAUCUCUU (ssRNA) [Ic_S1_P4E.1_K4.1_C4.1_H4.1_A4.1_[T5A]_[A6C]_F4.1_[T8A]_T4.1] | 173
UCUCUUUGUAAUCUGUCUCUU (ssRNA) [Ic_S1_P4E.1_K4.1_C4.1_H4.1_A4.1_[T5A]_[A6T]_[T7C]_F4.1_[A9G]_T4.1] | 76.5
UCUCUUUGUAACGCCUCUCUU (ssRNA) [Ic_S1_P4E.1_K4.1_C4.1_H4.1_A4.1_[T5A]_[A6C]_[T7G]_F4.1_[T8C]_[A9C]_T4.1] | 2000
UCUCUUUGUAACAUUUCUCUU (ssRNA) [Ic_S1_P4E.1_K4.1_C4.1_H4.1_A4.1_[T5A]_[A6C]_[T7A]_F4.1_[A9T]_T4.1] | 13.9
UCUCUUUGUUUAUGUCUCUU (ssRNA) [Ib_S1_P3E.1_K3.1_C3.1_H3.1_[A4T]_A3.1_F3.1_[A8G]_T3.1] | 1460
UCUCUUUGUAACAAUUCUCUU (ssRNA) [Ic_S1_P4E.1_K4.1_C4.1_H4.1_A4.1_[T5A]_[A6C]_[T7A]_F4.1_[T8A]_[A9T]_T4.1] | 102
